Measured values: publication PMC8496693

Key:
[1] = molecular target: mChe-INPP5E (UniProt Q9NRR6); assay: immunoblotting of anti-GFP Nb precipitates (band intensity of mChe-INPP5E); conditions: lysates of HEK293T cells coexpressing both constructs; three independent experiments; parent: 100; read off a plot
[2] = molecular target: mChe-INPP5E (UniProt Q9NRR6); assay: VIP assay (fluorescence intensity of mChe-INPP5E on GST-anti-GFP Nb beads); conditions: lysates of HEK293T cells coexpressing both constructs; three independent experiments; parent: 100; read off a plot

mChe-INPP5E, sequence (Q9NRR6 whole entry): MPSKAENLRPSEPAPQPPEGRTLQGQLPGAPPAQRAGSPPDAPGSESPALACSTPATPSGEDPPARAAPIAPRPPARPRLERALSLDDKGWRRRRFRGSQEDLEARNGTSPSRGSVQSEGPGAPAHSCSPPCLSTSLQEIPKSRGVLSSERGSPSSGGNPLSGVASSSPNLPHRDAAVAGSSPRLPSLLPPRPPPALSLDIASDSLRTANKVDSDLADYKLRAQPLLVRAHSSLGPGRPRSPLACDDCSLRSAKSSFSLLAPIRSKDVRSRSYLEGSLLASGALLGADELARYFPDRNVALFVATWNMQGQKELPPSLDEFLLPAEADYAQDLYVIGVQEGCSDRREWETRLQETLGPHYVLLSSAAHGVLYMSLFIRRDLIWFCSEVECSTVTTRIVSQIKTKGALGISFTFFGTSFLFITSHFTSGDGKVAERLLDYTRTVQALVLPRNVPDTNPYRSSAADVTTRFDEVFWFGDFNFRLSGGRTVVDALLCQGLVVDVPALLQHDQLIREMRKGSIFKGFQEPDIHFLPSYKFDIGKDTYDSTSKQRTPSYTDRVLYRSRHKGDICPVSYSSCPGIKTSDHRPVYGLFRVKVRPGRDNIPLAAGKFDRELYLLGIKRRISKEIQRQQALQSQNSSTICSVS
ARL13B(WT)-EGFP, Q3SXY8 AAEA (RVEP mutated to AAEA), sequence (Q3SXY8 other isoform, or with tags, fused parts or gaps AAEA (RVEP mutated to AAEA)): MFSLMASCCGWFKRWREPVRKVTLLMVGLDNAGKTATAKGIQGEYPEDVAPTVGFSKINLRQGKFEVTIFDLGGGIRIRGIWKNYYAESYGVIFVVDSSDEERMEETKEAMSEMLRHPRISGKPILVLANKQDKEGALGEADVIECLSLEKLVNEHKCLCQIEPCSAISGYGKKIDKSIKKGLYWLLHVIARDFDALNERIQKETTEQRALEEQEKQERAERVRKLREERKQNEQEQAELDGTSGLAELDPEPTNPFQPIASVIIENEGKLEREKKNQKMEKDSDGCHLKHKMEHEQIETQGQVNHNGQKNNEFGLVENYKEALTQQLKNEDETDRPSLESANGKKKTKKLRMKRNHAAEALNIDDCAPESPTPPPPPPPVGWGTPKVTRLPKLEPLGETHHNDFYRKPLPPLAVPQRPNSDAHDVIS

percent of parent (% of ARL13B(WT)-EGFP) [1]: 110
percent of parent (% of ARL13B(WT)-EGFP) [2]: 100
Substance: ARL13B(WT)-EGFP, Q3SXY8 AAEA (RVEP mutated to AAEA)
